Measurements as given in the supplement of paper PMC10567573.
± gives the standard deviation.

Assay: protein stability index of a GFP-peptide fusion (GPS, HEK-293T) (PSI 1-6); higher = more stable
[1] = treatment: DMSO, c terminus: a fixed tail appended
[2] = treatment: MLN4924 1 uM, 8 h, c terminus: a fixed tail appended
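Note: 24-mer peptide tiles fused after GFP, lentivirally expressed, FACS-sorted into six equal bins by GFP/DsRed ratio, decoded by Illumina sequencing, PSI is the read-weighted mean bin number.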

| Sequence | protein stability index [1] | protein stability index [2] | protein stability index (treatment: DMSO, c terminus: native) | protein stability index (treatment: MLN4924 1 uM, 8 h, c terminus: native) |
| --- | --- | --- | --- | --- |
| ANSAFAVDLFKQLCEKEPLGNVLF [SERPINB5] | 2.08 ± 0.29 | 2.47 ± 0.3 | – | – |
| GGFPIIRDQIFRYVHDPECVATTG [FBXO3] | 2.14 ± 0.29 | 2.7 ± 0.57 | – | – |
| SMEIYGSAVADKLDNSRSILKRRY [CTDNEP1] | 3.28 ± 0.22 | 3.71 ± 0.41 | – | – |
| SGTTLISVIVLDINDNAPTFQSSV [PCDHGC5] | 2.96 ± 0.28 | 2.64 ± 0.63 | – | – |
| RSPRAGAGALLRLPSERLDFSMAE [PRPH] | 4.17 ± 0.17 | 4.21 ± 0.29 | – | – |
| SDPENWDRKLHSRPRKLYKHSSTS [BTBD10] | 3.77 ± 0.27 | 3.94 ± 0.24 | – | – |
| PPSRGHGYRDYGHSRRHESYSRGY [RBMY1A1] | 3.96 ± 0.07 | 4.01 ± 0.32 | – | – |
| ESAKDWETSPLPGMLAPAAGPAFD [PPFIA4] | 4.62 ± 0.076 | 4.61 ± 0.33 | – | – |
| PDDKLTLFCEVSVVQDSVNISGHT [SPOPL] | 2.47 ± 0.52 | 2.81 ± 0.49 | – | – |
| SGRRNWCSYVVTRTISCHVQNGTY [EMID1] | 2.12 ± 0.41 | 1.93 ± 0.37 | – | – |
| APQNSFSAKLAPHYFHSISYKIEE [KCNK9] | 3.21 ± 0.12 | 3.34 ± 0.16 | – | – |
| DESGGPDNEDYPLFRELWRYHFAT [KLHDC10] | 2.95 ± 0.29 | 2.99 ± 0.27 | – | – |
| VQFVFDAVTDVIIKNNLKDCGLF [GNAI1] | – | – | 2.68 ± 0.81 | 2.61 ± 0.73 |
| TRQNGIQTNKPALRAVRQRSEFTL [STX5] | 3.19 ± 0.32 | 3.37 ± 0.39 | – | – |
| TCIDMDWKVLTWLRYTLWIPLYPL [HACD3] | 3.08 ± 0.28 | 3.29 ± 0.5 | – | – |
| HLSSQQASGQSYSSREVFTSSSSS [KRT16] | 4.63 ± 0.21 | 4.58 ± 0.17 | – | – |
| TRLEQEIATYRSLLEGQDAKMAGI [KRT15] | 3.7 ± 0.22 | 3.72 ± 0.18 | – | – |
| EAKAVGLISHVLEQNQEGDAAYRK [AUH] | 5.22 ± 0.22 | 5.18 ± 0.28 | – | – |
| VITYILLSGASPFLGETKQETLTN [DAPK3] | 2.75 ± 0.26 | 2.86 ± 0.4 | – | – |
| EVILLVVMAYDRYMAICKPLHELI [OR4A15] | 3.26 ± 0.43 | 2.97 ± 0.44 | – | – |
| YLLDYPNNLLSAPPPDVTQLTPPS [ANKRD17] | 3.23 ± 0.14 | 3.44 ± 0.2 | – | – |
| EEPQWVPDKECRRCMQCDAKFDFL [ZFYVE21] | 2.85 ± 0.45 | 2.95 ± 0.39 | – | – |
| QEAMFNMATLNRTAAGLMHTFNAH [SEPHS2] | 2.44 ± 0.12 | 2.54 ± 0.18 | – | – |

| Sequence | protein stability index [1] | protein stability index [2] | protein stability index (treatment: DMSO, c terminus: native) | protein stability index (treatment: MLN4924 1 uM, 8 h, c terminus: native) |
| --- | --- | --- | --- | --- |
| ENCLDAKSTSIQVIVKEGGLKLIQ [MLH1] | 2.7 ± 0.37 | 2.94 ± 0.22 | – | – |
| VFWPQLPNGLEAAYEFADRDEVRF [MMP1] | 2.86 ± 0.26 | 3.1 ± 0.3 | – | – |
| SKYVKLNVGGALYYTTMQTLTKQD [KCTD10] | 2.15 ± 0.25 | 2.44 ± 0.33 | – | – |
| HIKEILITAGGENVPPIPVETLVK [ACSBG2] | 2.71 ± 0.38 | 2.88 ± 0.2 | – | – |
| DPCVISQEIMEKYNIKLKWTNQQK [CFHR2] | 3.19 ± 0.22 | 2.92 ± 0.22 | – | – |
| IENNKYGWFWVCPGGGDICMYRHA [ZC3H15] | 2.52 ± 0.32 | 2.15 ± 0.53 | – | – |
| MLQSFINYCLLFLIYTVMLAFRSG [SLC35F2] | 2.83 ± 0.4 | 3.42 ± 0.28 | – | – |
| NSTGGDCFYRGYTSGVAAVQDWYH [SCNN1D] | 2.36 ± 0.16 | 2.43 ± 0.5 | – | – |
| HHSHSGPEISRIIVDPTTGKRYCR [PLK2] | 4.08 ± 0.16 | 4.32 ± 0.17 | – | – |
| IASEPTNKHLFYAEDFSTMDEISE [MATN2] | 4.57 ± 0.27 | 4.59 ± 0.23 | – | – |
| EVKLLLSSETPIEGKNMSFVNDLT [APMAP] | 3.35 ± 0.23 | 3.56 ± 0.13 | – | – |
| AYMGHLDVVALLINHGAEVTCKDK [ANKRD44] | 2.23 ± 0.39 | 2.44 ± 0.19 | – | – |
| SPFAQELLDDGQQASPYHPGSCGA [ELF3] | 4.83 ± 0.31 | 5.04 ± 0.16 | – | – |
| ASSGDLTCGVCALELGSTEVLLDH [PLAGL1] | 2.68 ± 0.4 | 2.82 ± 0.49 | – | – |
| DRVLRAMLKAEETCAPSVSYFKCV [CCND1] | 2.29 ± 0.25 | 2.35 ± 0.4 | – | – |
| TQSWSSQSSFNSLQRVPSYDSFDS [ETS1] | 4.06 ± 0.2 | 3.98 ± 0.22 | – | – |
| SEYRSDIINAKSNDGWTPLHVAAH [ASB7] | 3.19 ± 0.38 | 3.27 ± 0.11 | – | – |
| GASSPAAYDEALAELHAHGPAAFV [ZSWIM9] | 3.87 ± 0.22 | 3.99 ± 0.19 | – | – |
| RNQTQVLRQQQDEAYLASLRADQE [FAF2] | 5.18 ± 0.32 | 5.17 ± 0.16 | – | – |
| IAIARLRGSDLKVLEVTEESIDFD [FBXO33] | 2.73 ± 0.3 | 2.77 ± 0.47 | – | – |
| PESVEASPVVVEKSNSYPHQLYTS [KMT2E] | 4.34 ± 0.32 | 4.44 ± 0.26 | – | – |
| LTALLEKYTPSNKHGFSWAVPKFM [DLC1] | 2.6 ± 0.57 | 2.09 ± 0.2 | – | – |
| FVAFALCMFCLYSFMPLVIKVTSA [SLC35F2] | 3.2 ± 0.44 | 3.32 ± 0.68 | – | – |

| Sequence | protein stability index [1] | protein stability index [2] | protein stability index (treatment: DMSO, c terminus: native) | protein stability index (treatment: MLN4924 1 uM, 8 h, c terminus: native) |
| --- | --- | --- | --- | --- |
| ICGFLKERCFRGSSYPVCVSKVVK [OAS1] | 2.62 ± 0.31 | 2.13 ± 0.3 | – | – |
| LLRHGMDRLWRPSKVLSLQDLCCR [RAB40B] | 3.03 ± 0.09 | 2.97 ± 0.25 | – | – |
| STVKTETISFGSVSPGGVKLEIST [EPB41L3] | 3.19 ± 0.58 | 3.06 ± 0.42 | – | – |
| KQLVSPAAALLSNTTCQTENRLSV [PTGFR] | 3.74 ± 0.25 | 3.99 ± 0.2 | – | – |
| SGPEGNLNQIVTEPDANFPQFLHE [FAM104B] | 4.81 ± 0.15 | 4.93 ± 0.16 | – | – |
| EVMERDAKDYADSIHAIFVETSAK [RAB22A] | 4.15 ± 0.28 | 4.13 ± 0.24 | – | – |
| ENVLHFKAQGHGAKGDNVYEFHLE [HACD3] | 3.57 ± 0.3 | 3.79 ± 0.17 | – | – |
| TLALLLNFLACLASFCVETNNGAG [SCAMP3] | 3.06 ± 0.2 | 2.88 ± 0.89 | – | – |
| LIVVTQSHLVIHNLFEGMIWFIVP [CDS2] | 3.06 ± 0.41 | 3.25 ± 0.59 | – | – |
| CHEEVYAGSHQYPGRGVYLLKFDN [ACBD3] | 2 ± 0.64 | 2.16 ± 0.8 | – | – |
| KNRSFDIDAIYSVIDDAKQYVYIA [PLD5] | 2.75 ± 0.55 | 2.47 ± 0.71 | – | – |
| LKNKCCPPPCKFGEGKLSKRLKHK [C22orf31] | 3.49 ± 0.21 | 3.74 ± 0.48 | – | – |
| PERLHAIKEQLIQEGLLDRCVSFQ [HDAC6] | 2.88 ± 0.11 | 3.18 ± 0.12 | – | – |
| HPSGHWATCRLCGEQVGRGPGFHA [ZBED3] | 2.52 ± 0.069 | 3.05 ± 0.29 | – | – |
| YVRPERLSPISHGNTIALFFRSLL [TCF25] | 2.59 ± 0.4 | 2.71 ± 0.42 | – | – |
| EDSAQNCFALIPKAPKKDVIKMLV [EFHC1] | 2.69 ± 0.4 | 2.97 ± 0.26 | – | – |
| VQYGAGVACSETAPDLVLNAEMVQ [LOXL2] | 4.108 ± 0.007 | 4.47 ± 0.25 | – | – |
| GSEENGRYFSLSLMSGALAVNQKI [PCDHGC5] | 2.49 ± 0.2 | 2.6 ± 0.23 | – | – |
| GLGFASNAFQETWYWHGDVNSNKV [LOXL2] | 3.04 ± 0.12 | 2.44 ± 0.29 | – | – |
| KGCKVTLPEKPVKLASHTRDTTGV [FBF1] | 4.21 ± 0.24 | 4.58 ± 0.17 | – | – |
| QAPGEENLLGEAAGGQDMADSMLM [HDAC6] | 5.36 ± 0.16 | 5.14 ± 0.36 | – | – |
| NVPRICGVCGDRATGFHFNAMTCE [VDR] | 2.83 ± 0.39 | 2.73 ± 0.2 | – | – |
| PGKDYDADRQCQLTFGPDSRHCPQ [ADAMTS4] | 4.68 ± 0.26 | 4.67 ± 0.24 | – | – |

| Sequence | protein stability index [1] | protein stability index [2] | protein stability index (treatment: DMSO, c terminus: native) | protein stability index (treatment: MLN4924 1 uM, 8 h, c terminus: native) |
| --- | --- | --- | --- | --- |
| PVHLVDKLPLPIALRSHLKSFSMA [RAB40B] | 2.46 ± 0.2 | 2.27 ± 0.2 | – | – |
| GLQAQILHCYRDRPHEVLLCSDLV [CHCHD6] | 2.39 ± 0.39 | 2.16 ± 0.33 | – | – |
| ETLDYGKNYNYGMHYCAVPPRGPL [NEUROD6] | 2.65 ± 0.31 | 2.68 ± 0.14 | – | – |
| QHSHVVRYFSAWAEDDHMLIQNEY [WEE1] | 2.22 ± 0.14 | 2.24 ± 0.12 | – | – |
| MQRLVAWDPACLPLPPPPPAFKSM [CEBPB] | 2.63 ± 0.39 | 2.91 ± 0.39 | – | – |
| GGVGYGDSKDCILEPLSLPESPGG [ZNF277] | 4.43 ± 0.37 | 4.98 ± 0.19 | – | – |
| EKFSDEGDSDSALDSVSPCPSSPK [DLC1] | 5.41 ± 0.51 | 5.58 ± 0.13 | – | – |
| ILHIPQVTKLCVQFLNDQISVQNY [KLHL14] | 2.54 ± 0.45 | 2.51 ± 0.52 | – | – |
| VTSIHKYMVRRYFNKPSRVPAPEA [MYORG] | 2.42 ± 0.14 | 2.38 ± 0.3 | – | – |
| PLQDFPNSISSDKEATVPCTEILT [MIA2] | 4.55 ± 0.24 | 4.54 ± 0.24 | – | – |
| VQLQRIPLSAVYRICLGKFTFPGM [TPRG1] | 2.65 ± 0.69 | 2.21 ± 0.43 | – | – |
| IVFPEKLNGSVLPGSGAPARLLCR [ADAMTS4] | 2.87 ± 0.26 | 2.59 ± 0.4 | – | – |
| QELANIDPTWIESPKTNGHIENGP [SRPK2] | 4.92 ± 0.32 | 4.63 ± 0.19 | – | – |
| ILRLPLEHACTVRNLARSQSVKMK [TAF7L] | 2.92 ± 0.18 | 3.19 ± 0.34 | – | – |
| PNCFRKDPDINMHPFFFALGKILS [FADS1] | 2.1 ± 0.51 | 2.33 ± 0.5 | – | – |
| QDIDLGAGREVFDYSHRQKEQDVE [NFE2L1] | – | 5.05 ± 0.84 | – | – |
| SNANYSVKKCIFLLFINHRLVEST [MLH1] | 3.35 ± 0.46 | 3.25 ± 1.2 | – | – |
| DIGAVYSHRPNQHNTVKLGAFQAQ [PRIM1] | 3.11 ± 0.41 | 3.19 ± 0.45 | – | – |
| GLQLPSTLPVSGNLLDVYSSQGVA [TFE3] | 3.15 ± 0.53 | 3.4 ± 0.36 | – | – |
| LGNGNDKKEMNKSDLNTNNLLFKP [KMT2E] | 4.65 ± 0.25 | 4.34 ± 0.32 | – | – |
